The chains are these.
T1: recombinant human LRP6-Fc chimera (human, UniProt O75581 20-1370)
T1 construct: extracellular domain; also called ECD of human LRP6; not shown: Fc part of the chimera
T1 sequence (looked up): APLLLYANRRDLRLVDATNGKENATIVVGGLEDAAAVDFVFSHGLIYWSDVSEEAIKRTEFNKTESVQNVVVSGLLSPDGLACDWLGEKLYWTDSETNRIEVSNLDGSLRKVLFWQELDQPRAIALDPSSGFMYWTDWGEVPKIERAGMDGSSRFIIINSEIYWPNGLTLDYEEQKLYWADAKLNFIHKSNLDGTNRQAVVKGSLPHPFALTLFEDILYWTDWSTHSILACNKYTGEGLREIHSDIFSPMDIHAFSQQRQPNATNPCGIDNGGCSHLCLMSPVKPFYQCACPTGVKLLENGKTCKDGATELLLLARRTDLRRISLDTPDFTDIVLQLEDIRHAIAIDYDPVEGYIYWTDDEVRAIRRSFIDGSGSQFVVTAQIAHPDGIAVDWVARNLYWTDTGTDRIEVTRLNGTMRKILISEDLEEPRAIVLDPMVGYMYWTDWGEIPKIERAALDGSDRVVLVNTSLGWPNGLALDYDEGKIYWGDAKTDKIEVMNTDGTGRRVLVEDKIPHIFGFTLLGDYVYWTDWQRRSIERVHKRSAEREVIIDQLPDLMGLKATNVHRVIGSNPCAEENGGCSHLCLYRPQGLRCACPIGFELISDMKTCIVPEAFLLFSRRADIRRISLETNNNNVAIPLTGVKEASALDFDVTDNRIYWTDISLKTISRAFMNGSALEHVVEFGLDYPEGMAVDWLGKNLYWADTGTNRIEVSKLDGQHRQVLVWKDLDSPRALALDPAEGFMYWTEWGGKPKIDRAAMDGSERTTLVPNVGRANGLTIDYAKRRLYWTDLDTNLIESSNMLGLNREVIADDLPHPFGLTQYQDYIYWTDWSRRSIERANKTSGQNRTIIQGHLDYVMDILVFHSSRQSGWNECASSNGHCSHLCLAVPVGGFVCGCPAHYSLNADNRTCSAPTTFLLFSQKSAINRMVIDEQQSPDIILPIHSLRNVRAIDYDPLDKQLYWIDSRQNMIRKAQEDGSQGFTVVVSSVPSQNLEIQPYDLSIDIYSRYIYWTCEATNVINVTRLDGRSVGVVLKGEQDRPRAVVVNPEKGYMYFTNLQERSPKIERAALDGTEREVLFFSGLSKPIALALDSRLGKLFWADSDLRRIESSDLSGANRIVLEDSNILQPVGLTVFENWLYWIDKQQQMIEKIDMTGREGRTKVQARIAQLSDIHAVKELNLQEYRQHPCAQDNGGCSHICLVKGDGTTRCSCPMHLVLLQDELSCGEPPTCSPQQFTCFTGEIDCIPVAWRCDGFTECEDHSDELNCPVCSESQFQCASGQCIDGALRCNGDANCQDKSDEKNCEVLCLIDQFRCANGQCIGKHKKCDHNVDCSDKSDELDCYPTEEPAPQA

T2: recombinant mouse LRP5-His chimera (mouse, UniProt Q91VN0 31-1383)
T2 construct: extracellular domain; also called ECD of mouse LRP5; not shown: His tag
T2 sequence (looked up): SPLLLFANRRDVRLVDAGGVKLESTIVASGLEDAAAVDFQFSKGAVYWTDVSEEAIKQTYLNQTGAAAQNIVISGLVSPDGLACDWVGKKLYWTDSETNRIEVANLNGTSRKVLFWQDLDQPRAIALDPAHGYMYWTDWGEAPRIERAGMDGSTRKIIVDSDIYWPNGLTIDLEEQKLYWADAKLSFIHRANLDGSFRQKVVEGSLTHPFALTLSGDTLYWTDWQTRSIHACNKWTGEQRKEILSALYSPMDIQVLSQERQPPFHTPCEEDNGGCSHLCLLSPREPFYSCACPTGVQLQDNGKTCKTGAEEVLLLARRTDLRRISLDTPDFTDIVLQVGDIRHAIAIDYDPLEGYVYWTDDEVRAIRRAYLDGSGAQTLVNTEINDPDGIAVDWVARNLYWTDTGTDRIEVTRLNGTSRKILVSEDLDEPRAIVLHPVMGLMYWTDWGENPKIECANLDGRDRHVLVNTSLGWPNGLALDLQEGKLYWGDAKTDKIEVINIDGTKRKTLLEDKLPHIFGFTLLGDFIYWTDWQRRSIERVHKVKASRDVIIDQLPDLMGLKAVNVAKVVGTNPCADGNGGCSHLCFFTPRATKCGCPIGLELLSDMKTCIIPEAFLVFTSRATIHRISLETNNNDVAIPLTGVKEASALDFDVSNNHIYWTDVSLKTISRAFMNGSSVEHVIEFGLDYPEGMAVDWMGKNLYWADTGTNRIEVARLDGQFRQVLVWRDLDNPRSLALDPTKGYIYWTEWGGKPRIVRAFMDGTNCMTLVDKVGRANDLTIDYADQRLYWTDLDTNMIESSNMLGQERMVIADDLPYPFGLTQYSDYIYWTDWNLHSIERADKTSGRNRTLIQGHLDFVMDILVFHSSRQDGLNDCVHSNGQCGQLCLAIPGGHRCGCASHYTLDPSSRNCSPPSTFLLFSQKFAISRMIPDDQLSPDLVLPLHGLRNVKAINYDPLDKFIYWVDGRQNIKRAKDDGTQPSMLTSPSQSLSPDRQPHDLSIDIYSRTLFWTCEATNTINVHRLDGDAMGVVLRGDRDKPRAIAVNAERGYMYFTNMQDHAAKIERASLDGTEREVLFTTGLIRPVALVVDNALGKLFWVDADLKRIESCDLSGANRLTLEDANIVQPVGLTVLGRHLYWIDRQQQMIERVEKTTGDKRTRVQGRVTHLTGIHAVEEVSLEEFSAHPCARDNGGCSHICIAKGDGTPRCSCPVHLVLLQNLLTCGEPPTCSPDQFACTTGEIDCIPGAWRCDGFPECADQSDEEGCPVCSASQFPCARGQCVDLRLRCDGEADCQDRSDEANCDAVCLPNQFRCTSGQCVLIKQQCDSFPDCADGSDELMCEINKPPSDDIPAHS

B1: LRP5-A7 (antibody, V domains shown)
VH: EVQLVESGGGLVQPGGSLRLSCAASGFNLSYSSMHWVRQAPGKGLEWVASIYPYYGYTYYADSVKGRFTISADTSKNTAYLQMNSLRAEDTAVYYCARHGAMDYWGQGTLVTVSS
VL: DIQMTQSPSSLSASVGDRVTITCRASQSVSSAVAWYQQKPGKAPKLLIYSASSLYSGVPSRFSGSRSGTDFTLTISSLQPEDFATYYCQQAWGWGLFTFGQGTKVEIKR
notes: Fab-phage in the screen; also called LRP5-47
B2: LRP5-G11 (antibody, V domains shown)
VH: EVQLVESGGGLVQPGGSLRLSCAASGFNISYSYIHWVRQAPGKGLEWVASIYPSYGYTYYADSVKGRFTISADTSKNTAYLQMNSLRAEDTAVYYCARAAPYYGYYYSYAMDYWGQGTLVTVSS
VL: DIQMTQSPSSLSASVGDRVTITCRASQSVSSAVAWYQQKPGKAPKLLIYSASSLYSGVPSRFSGSRSGTDFTLTISSLQPEDFATYYCQQGVSLITFGQGTKVEIKR
notes: Fab-phage in the screen
B3: LRP5-D9 (antibody, V domains shown)
VH: EVQLVESGGGLVQPGGSLRLSCAASGFNISYSYIHWVRQAPGKGLEWVASIYSSYGYTYYADSVKGRFTISADTSKNTAYLQMNSLRAEDTAVYYCARHYSYFFYAMDYWGQGTLVTVSS
VL: DIQMTQSPSSLSASVGDRVTITCRASQSVSSAVAWYQQKPGKAPKLLIYSASSLYSGVPSRFSGSRSGTDFTLTISSLQPEDFATYYCQQASYSPITFGQGTKVEIKR
notes: Fab-phage in the screen
B4: LRP5-H9 (antibody, V domains shown)
VH: EVQLVESGGGLVQPGGSLRLSCAASGFNIYSYYIHWVRQAPGKGLEWVASIYSYYGYTYYADSVKGRFTISADTSKNTAYLQMNSLRAEDTAVYYCARSYPAMDYWGQGTLVTVSS
VL: B3 VL with A91S
notes: Fab-phage in the screen
B5: LRP5-G9 (antibody, V domains shown)
VH: EVQLVESGGGLVQPGGSLRLSCAASGFNISYSYIHWVRQAPGKGLEWVASIYSSYGYTYYADSVKGRFTISADTSKNTAYLQMNSLRAEDTAVYYCARWGAYHSSGYGMDYWGQGTLVTVSS
VL: B3 VL with A91S, Y93S
notes: Fab-phage in the screen
B6: LRP5-C12 (antibody, V domains shown)
VH: EVQLVESGGGLVQPGGSLRLSCAASGFNFSSSSIHWVRQAPGKGLEWVASIYSSYGSTSYADSVKGRFTISADTSKNTAYLQMNSLRAEDTAVYYCARTVRGSKKPYFSGWAMDYWGQGTLVTVSS
VL: B1 VL with A91F, W92S, G93H, W94V, G95S, F97I
notes: Fab-phage in the screen
B7: LRP5-E5 (antibody, V domains shown)
VH: EVQLVESGGGLVQPGGSLRLSCAASGFNIYSYSIHWVRQAPGKGLEWVASIYPYSSYTSYADSVKGRFTISADTSKNTAYLQMNSLRAEDTAVYYCARYAVYFPGYYWGMDYWGQGTLVTVSS
VL: B1 VL with A91Y, W92H, G93Y, W94Y, G95Y
notes: Fab-phage in the screen
B8: LRP5-H3 (antibody, V domains shown)
VH: EVQLVESGGGLVQPGGSLRLSCAASGFNLYYYYIHWVRQAPGKGLEWVASISPYYGYTSYADSVKGRFTISADTSKNTAYLQMNSLRAEDTAVYYCARSGYGWYAMDYWGQGTLVTVSS
VL: B2 VL with G91Y, V92W, S93F
notes: Fab-phage in the screen
B9: LRP5-A9 (antibody, V domains shown)
VH: EVQLVESGGGLVQPGGSLRLSCAASGFNISSYSIHWVRQAPGKGLEWVASSSYYGYTYYADSVKGRFTISADTSKNTAYLQMNSLRAEDTAVYYCARTVRGSKKPYFSGWAMDYWGQGTLVTVSS
VL: DIQMTQSPSSLSASVGDRVTITCRASQSVSSAVAWYQQKPGKAPKLLIYSASSLYSGVPSRFSGSRSGTDFTLTISSLQPEDFATYYCQQVHYSPYSLITFGQGTKVEIKR
notes: Fab-phage in the screen

The source of these data is patent US20230183336A1 (MODMAB THERAPEUTICS, published 2023).

Changes are numbered by the printed parent chain.

The target of one assay is T1, recombinant human LRP6-Fc chimera. Description: multipoint competitive ELISA, IgG1; varied competitor printed as recombinant human LRP6-Fc chimera, while paragraph 283 says 'the recombinant antigen'. An excerpt: (§1) The full length IgG1s and the antibody fragments (Fabs) were purified and a single-point ELISA was done to determine the specificity of the antibodies. […] A multipoint competitive ELISA was used to determine the relative affinities of the antibodies to the recombinant antigen.
Table 3 reports the IC50 of LRP5 antibodies as determined by competitive ELISA. The log of the recombinant human LRP6-Fc chimera concentration (x-axis) was plotted against the OD450 reading of the antibody (y-axis). The IC50 was determined by non-linear regression analysis.
Consider B1, for which the half-maximal inhibitory concentration (IC50) was determined as 4.68 nM.
As to B2, the IC50 amounted to 25.1 nM.
On to B3, for which the IC50 was determined as 25.1 nM.
Turning to B4, the IC50 came out at 37.5 nM.
Regarding B5, the IC50 turned out to be 26.4 nM.

The target in the next assay is T2, recombinant mouse LRP5-His chimera. Description: single-point ELISA, coated antigen, purified Fab or IgG1, anti-kappa-HRP. On the procedure:
FIGS. 1A and 1B show sixteen (16) anti-LRP antibodies. (A) The amino acid sequences of the complementarity determining regions (CDR) of the heavy (H) and the light (L) chains are presented. The antibodies were grouped into unique epitopes as determined by competitive ELISAs. (B) Single-point ELISAs were performed on 96-well Maxisorb immune plates coated with ECD's of mouse LRP5, mouse LRP6 and human LRP6 chimeras. The plates were incubated with the purified Fab or IgG1 at the concentrations indicated followed by incubation with horseradish peroxidase (HRP)-conjugated anti-kappa antibody. The wells were washed eight times followed by incubation with 3,3′,5,5′-tetramethylbenzidine/H₂O₂ peroxidase (TMB) substrate for 5-10 min. The reaction was stopped by adding 1M H₃PO₄ and the absorbance was measured spectrometrically at 450 nm in a microtiter plate reader. FIG. 1A discloses “SSVA” as SEQ ID NO: 34, and “SASSLYS” as SEQ ID NO: 35, as well as SEQ ID NOS 36-49, 51, 44, 2-4, 4, 5-7, 5, 4, 5, 8-10, 4, 52, 55, 11-16, 15, 15, 13, 17-20, 13, 53, 56, 21-23, 22, 24-33, 54, 57, respectively, in order of columns.
as §1
B1: the binding result was “binds”.
Take B6: the binding result was “binds”.
For B7, the binding result was “binds”.
Consider B8, for which the binding result was “binds”.
Turning to B9, the binding result is “binds”.
For B3, the binding result is “binds”.
As for B4, the binding result is listed as “binds”.
